pKd: −log10 of the molar value.
Biological target: HCoV-OC43 nucleocapsid (N) protein, 2X-StrepTag tagged (HCoV-OC43) (UniProt P33469)
Assay: BLI

Chain of HCoV-OC43 nucleocapsid (N) protein, 2X-StrepTag tagged (HCoV-OC43) (P33469 whole entry): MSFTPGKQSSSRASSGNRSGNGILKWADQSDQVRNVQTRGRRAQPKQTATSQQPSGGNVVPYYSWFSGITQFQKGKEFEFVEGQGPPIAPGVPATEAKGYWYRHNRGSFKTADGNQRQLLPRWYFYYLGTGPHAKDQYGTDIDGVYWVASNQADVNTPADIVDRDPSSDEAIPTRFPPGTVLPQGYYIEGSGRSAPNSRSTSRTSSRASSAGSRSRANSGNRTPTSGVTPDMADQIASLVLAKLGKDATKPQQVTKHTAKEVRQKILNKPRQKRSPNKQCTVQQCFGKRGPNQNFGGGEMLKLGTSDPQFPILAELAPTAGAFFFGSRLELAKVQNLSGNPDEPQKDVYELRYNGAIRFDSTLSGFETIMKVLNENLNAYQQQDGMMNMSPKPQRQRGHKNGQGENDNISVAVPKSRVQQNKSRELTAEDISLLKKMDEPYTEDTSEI

In the case of CXCL4 (ligand), the pKd was 6.77, the koff was 0.00088 s⁻¹ and the kon was 5300 M⁻¹ s⁻¹.

From paper PMC10334784
